The values that follow come from US20140308201A1 (Novartis, published 2014).

Experiment [1] concerns the target T1, Human FGFR2 IIIb D1-3 (human).
T1 construct: Extracellular domains D1-3 with C-terminal tag, made in HEK293T; also called recombinant human FGFR2 IIIb; hFGFR2
T1 chain: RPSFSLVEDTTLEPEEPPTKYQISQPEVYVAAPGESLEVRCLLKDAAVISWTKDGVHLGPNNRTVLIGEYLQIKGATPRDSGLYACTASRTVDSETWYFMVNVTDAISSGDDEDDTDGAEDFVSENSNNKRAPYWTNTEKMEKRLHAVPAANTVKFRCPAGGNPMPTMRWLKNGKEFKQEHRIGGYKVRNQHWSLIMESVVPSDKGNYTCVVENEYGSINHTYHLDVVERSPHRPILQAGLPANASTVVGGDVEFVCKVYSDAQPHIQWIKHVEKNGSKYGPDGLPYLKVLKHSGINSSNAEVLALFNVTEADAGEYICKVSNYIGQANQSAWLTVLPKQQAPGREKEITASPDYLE
The experiment is described as follows: SPR Biacore, IgG captured via anti-human Fc, soluble FGFR as analyte. As for the experimental part:
(§1) Affinity of the antibodies to FGFR2 species orthologues was determined using Biacore technology using a Biacore T100 instrument (GE Systems) and with CM5 sensor chips.
(§2) For kinetic measurements, experiments were performed in which the antibodies were immobilized to the sensor chip surface and the ability of the FGFR proteins described above listed in Table 1 to bind in free solution was determined Briefly, 50 μg/ml of anti-human Fc antibody at pH 4.75 was immobilized on a CM5 sensor chip through amine coupling at flow rate of 10 μl/minute on all four flow cells to reach 6000 RUs. […] Subsequently, 0.078-100 nM of FGFR receptors, diluted in a 2-fold series, were injected at a flow rate of 80 μl/min for 7 min over both reference and test flow cells. Dissociation of the binding was followed for 10 min using HBS-EP⁺ supplemented with 0.5 mg/ml of BSA and 10 μg/ml heparin as running buffer. After each injection cycle, the chip surface was regenerated with 10 mM glycine, pH 2.0 at 60 μl/min for 70 s.
On the technique in general: SPR reads the build-up and loss of mass on a sensor chip optically.

Experiment [2] addresses T2, Mouse FGFR2 IIIb D1-3 (mouse).
T2 construct: Extracellular domains with C-terminal tag
The description is as above. As for the experimental part:
as §1, §2

The target of experiment [3] is T3, Cynomolgus monkey FGFR2 IIIb D1-3 (cynomolgus monkey).
T3 construct: also called Cyno FGFR2 IIIb
T3 chain: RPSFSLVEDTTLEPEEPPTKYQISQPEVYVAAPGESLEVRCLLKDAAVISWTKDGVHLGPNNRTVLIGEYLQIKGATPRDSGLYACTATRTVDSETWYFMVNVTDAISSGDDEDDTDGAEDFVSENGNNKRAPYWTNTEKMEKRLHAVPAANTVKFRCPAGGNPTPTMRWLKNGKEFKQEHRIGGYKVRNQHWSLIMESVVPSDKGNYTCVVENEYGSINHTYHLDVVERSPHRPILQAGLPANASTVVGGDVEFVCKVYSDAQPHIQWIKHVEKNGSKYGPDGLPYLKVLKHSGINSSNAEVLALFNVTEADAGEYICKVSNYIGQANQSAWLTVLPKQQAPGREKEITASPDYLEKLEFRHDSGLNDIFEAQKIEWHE
Described as above. As for the experimental part:
as §1, §2

For experiment [4], the target named is T4, Rat FGFR2 IIIb D1-3 (rat).
T4 construct: Extracellular domains with C-terminal tag
The description is as above. The method, then: as §1, §2

Experiment [5] has as its target T1, Human FGFR2 IIIb D1-3. The experiment is described as follows: SPR Biacore, method as Example 2. As for the experimental part:
as §2

The target in experiment [6] is T2, Mouse FGFR2 IIIb D1-3. Put plainly: SPR Biacore, method as Example 2. As for the experimental part: as §2
The target in experiment [7] is T3, Cynomolgus monkey FGFR2 IIIb D1-3. Put plainly: SPR Biacore, method as Example 2. The method, then: as §2
Experiment [8] addresses T4, Rat FGFR2 IIIb D1-3. Put plainly: SPR Biacore, method as Example 2. The method, then:
as §2

The target of experiment [9] is T1, Human FGFR2 IIIb D1-3. Put plainly: SPR Biacore, method as Example 2. As for the experimental part: as §2
Experiment [10] addresses T5, FGFR2 D2-D3 Construct (human).
T5 construct: E. coli made, not glycosylated; also called E. Coli. derived FGFR2D2-D3 protein
T5 chain: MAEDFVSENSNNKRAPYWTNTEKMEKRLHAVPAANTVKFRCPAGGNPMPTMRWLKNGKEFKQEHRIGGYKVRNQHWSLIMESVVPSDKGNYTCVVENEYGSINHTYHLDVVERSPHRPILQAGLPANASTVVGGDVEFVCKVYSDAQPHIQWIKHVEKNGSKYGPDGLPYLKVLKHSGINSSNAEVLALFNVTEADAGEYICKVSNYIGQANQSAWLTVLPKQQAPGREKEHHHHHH
Put plainly: HDx-MS, antigen incubated 30 min with antibody. As for the experimental part: The epitope mapping experiments described in this example were performed on a Waters HDx-MS platform, which includes a LEAP autosampler, nanoACQUITY UPLC System, and Synapt G2 mass spectrometer. The studies were automated by a LEAP autosampler operated by the LeapShell software, which performed initiation of the deuterium exchange reaction, reaction time control, quench reaction, injection onto the UPLC system and digestion time control. The Leap autosampler was equipped with two temperature controlled stacks maintained at 25° C. for HDx reaction and maintained at 2° C. for storage of protein and quench solution, respectively. Triplicate control experiments were carried out on antigen at a deuterium exchange time of 25 minutes. HDX was quenched with quenching buffer (6 M urea and 1 M TCEP pH=2.5). […] Triplicate experiments were carried out on antigen-mAb complex just as the control experiments except in these experiments the antigen in incubated for 30 min with the antibody at 25° C. prior to deuterium exchange.

Experiment [11] concerns the target T6, FGFR2 D2 (human).
T6 construct: trypsin was added to the complex before crystallisation; also called FGFR D2; human FGFR2 ECD fragment (domain 2)
T6 chain: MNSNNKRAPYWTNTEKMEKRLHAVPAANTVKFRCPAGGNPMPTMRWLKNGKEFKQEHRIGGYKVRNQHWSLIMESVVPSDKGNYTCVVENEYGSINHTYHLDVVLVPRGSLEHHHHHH
Put plainly: complex purified by size exclusion chromatography and crystallised. (SEC sorts molecules by how far they enter the pores of the column.)
Description: Peak fractions were analyzed by SDS-PAGE and LCMS.
Crystals were grown by sitting drop vapor diffusion. In detail, 0.1 μl of protein was mixed with 0.1 μl of reservoir solution which contains 0.1 M tri-sodium citrate dihydrate pH 5.0, 20% (w/v) PEG6000; and the drop was equilibrated against 45 μl of the same reservoir solution at 20° C.

T4 sequence (P21803 other isoform, or with tags, fused parts or gaps): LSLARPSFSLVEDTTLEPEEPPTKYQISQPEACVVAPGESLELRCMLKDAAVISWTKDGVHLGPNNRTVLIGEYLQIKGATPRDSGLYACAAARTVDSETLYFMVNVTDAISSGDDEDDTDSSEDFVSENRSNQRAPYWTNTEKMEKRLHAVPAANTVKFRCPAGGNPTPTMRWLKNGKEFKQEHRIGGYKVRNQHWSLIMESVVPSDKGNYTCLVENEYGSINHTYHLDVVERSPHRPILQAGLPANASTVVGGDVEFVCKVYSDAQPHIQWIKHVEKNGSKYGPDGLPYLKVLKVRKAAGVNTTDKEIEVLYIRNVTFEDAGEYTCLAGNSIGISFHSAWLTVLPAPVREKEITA

B1: mAb12433 (antibody, human IgG1, kappa, V domains shown)
VH: QVQLVQSGAEVKKPGESLKISCKGSGYSFTNYYIHWVRQMPGKGLEWMGAIYPDNSDTTYSPSFQGQVTISADKSISTAYLQWSSLKASDTAMYYCARGADIWGQGTLVTVSS
VL: DIQMTQSPSSLSASVGDRVTITCRASQDIDPYLSNWYQQKPGKAPKLLIYDASNLQSGVPSRFSGSGSGTDFTLTISSLQPEDFATYYCQQTTSHPYTFGQGTKVEIKR
notes: HuCAL human IgG1
As a reminder, the Kd is a measure of binding affinity in units of concentration. Consider B1, for which the Kd in experiment [1] worked out at 5.6 nM; in experiment [2] it was 8 nM; in experiment [3] it was 12 nM; in experiment [4], 12 nM; in experiment [5] it was 5.6 nM; in experiment [6], 2.2 nM. Further, the Kd in [7] was 1.7 nM; in experiment [8], 3.7 nM; in experiment [9], 5.6 nM. For the same molecule, the binding result in experiment [10] was “binds”.

B2: 12425 Fab (Fab, V domains shown)
VH: QVQLLESGGGLVQPGGSLRLSCAASGFTFSDYAMSWVRQAPGKGLEWVSVIEGDGSYTHYADSVKGRFTISRDNSKNTLYLQMNSLRAEDTAVYYCAREKTYSSAFDYWGQGTLVTVSS
VL: DIQMTQSPSSLSASVGDRVTITCRASQDISSDLNWYQQKPGKAPKLLIYDASNLQSGVPSRFSGSGSGTDFTLTISSLQPEDFAVYYCQQHYSPSHTFGQGTKVEIKR
Regarding B2, in experiment [11], the binding result is “binds”.
